From patent publication US20230028110A1 (ADAPTATE BIOTHERAPEUTICS, published 2023)

Assays:
[1] = target: T1, L1 (DV1-GV4), soluble human Vδ1/Vγ4 γδ TCR heterodimer in leucine zipper format (human); assay: SPR (Reichert 4SPR), antibody on Protein A chip, antigen flown over
T1 construct: Biotinylated in the DELFIA ranking; also called Antigen L1 (TRDV1/TRGV4); human DV1-GV4; not shown: gamma chain: Vγ4 (TRGV4) domain on a TCR constant region, leucine zipper, histidine tag

[2] = target: T2, Vδ1 chain of the γδ TCR on human Vδ1 γδ T cells (human); assay: flow cytometry on Vδ1 γδ T-cells, anti-human IgG secondary antibody, % cells bound IgG
T2 construct: whole, on cells; also called cell surface Vδ1 TCR; Vδ1-positive γδ T cells
Procedure: After washing, cells were incubated for a further 15 minutes with anti-human IgG secondary antibodies before washing and fixing. The amount of antibody bound to each cell type was determined by flow cytometry.

[3] = target: T2, Vδ1 chain of the γδ TCR on human Vδ1 γδ …; assay: cell-based or functional assay
Recombinant human PD-1 = target: T3, Recombinant human PD-1 (human, UniProt Q15116 25-167, limits assumed); assay: SPR, Reichert 4SPR; antibody captured on Protein A chip, human PD-1 flown over
T3 construct: also called programmed cell death protein 1
Procedure: Recombinant human Vδ1 heterodimer or human PD-1 was flown over the cell at a top concentration of 100 nM.

[4] = target: T2, Vδ1 chain of the γδ TCR on human Vδ1 γδ …; assay: flow cytometry on Vδ1 γδ T-cells, anti-human IgG secondary antibody, % cells bound IgG; remark: listed apart in the source
[5] = target: T4, TIGIT on activated CD8 T-cells (human, UniProt Q495A1); assay: flow cytometry, anti-human IgG secondary antibody, activated CD8 T-cells
T4 sequence (receptor chain, looked up): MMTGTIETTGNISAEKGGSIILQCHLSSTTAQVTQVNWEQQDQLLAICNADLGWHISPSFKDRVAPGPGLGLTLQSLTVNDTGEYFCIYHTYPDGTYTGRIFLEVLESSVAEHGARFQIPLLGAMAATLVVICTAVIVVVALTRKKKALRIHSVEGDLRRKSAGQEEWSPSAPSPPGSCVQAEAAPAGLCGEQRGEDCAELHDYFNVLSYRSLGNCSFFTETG
Procedure: (§1) Initially CD4 and CD8 T-cells were negatively selected by magnetic sorting from PBMC buffy coats extracted from whole blood. […] After washing, cells were incubated for a further 15 minutes with anti-human IgG secondary antibodies before washing and fixing. The amount of antibody bound to each cell type was determined by flow cytometry.

[6] = target: T1, L1 (DV1-GV4), soluble human Vδ1/Vγ4 γδ …; assay: SPR (Reichert 4SPR), antibody on Protein A chip, antigen flown over; remark: listed apart in the source
Procedure: Recombinant human Vδ1 heterodimer or human TIGIT was flown over the cell at a top concentration of 100 nM.

Recombinant human FAPα = Recombinant human FAPα (human, UniProt Q12884 26-760); assay: SPR, Reichert 4SPR; antibody captured on Protein A chip, human FAPα flown over
Procedure: Recombinant human Vδ1 heterodimer or human FAPα was flown over the cell at a concentration of 100 nM with the following parameters: 180 s association, 480 s dissociation, flowrate 25 μL/min, running buffer PBS+0.05% Tween 20. All experiments were performed at room temperature.

Recombinant human MSLN = target: T5, Recombinant human MSLN (human, UniProt Q13421 296-580, limits assumed); assay: SPR, Reichert 4SPR; antibody captured on Protein A chip, human MSLN flown over
T5 construct: also called mesothelin
Procedure: Recombinant human Vδ1 heterodimer or human MSLN was flown over the cell at a top concentration of 100 nM with the following parameters: 180 s association, 480 s dissociation, flowrate 25 μL/min, running buffer PBS+0.05% Tween 20. All experiments were performed at room temperature.

[7] = target: T6, 4-1BB on activated CD8 T-cells (human, UniProt Q07011); assay: flow cytometry on anti-CD3/anti-CD28-activated CD8 T-cells, anti-human IgG secondary antibody, % cells bound IgG
T6 construct: also called 4-1BB+ CD8 T-cells

[8] = target: T1, L1 (DV1-GV4), soluble human Vδ1/Vγ4 γδ …; assay: SPR (Reichert 4SPR), antibody on Protein A chip, Vδ1 heterodimer at 6.25-100 nM as analyte
[9] = target: T7, Cyno DV1/GV77 antigen, recombinant cynomolgus Vδ1 heterodimer (cynomolgus monkey); assay: as above
T7 construct: also called cyno TRDV1; Cyno DV1-77; not shown: delta CDR3/J, TCR constant region, zipper and tag; the whole gamma chain GV77

[10] = target: T2, Vδ1 chain of the γδ TCR on human Vδ1 γδ …; assay: flow cytometry, anti-human IgG secondary antibody, Vδ1 γδ T-cells
Procedure: as §1

T2 sequence (A0A1B0GX56 22-115, stated change not applied): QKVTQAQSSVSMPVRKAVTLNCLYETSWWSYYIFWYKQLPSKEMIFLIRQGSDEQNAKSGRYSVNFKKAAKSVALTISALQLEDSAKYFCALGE
T1 sequence (main, as listed by the source): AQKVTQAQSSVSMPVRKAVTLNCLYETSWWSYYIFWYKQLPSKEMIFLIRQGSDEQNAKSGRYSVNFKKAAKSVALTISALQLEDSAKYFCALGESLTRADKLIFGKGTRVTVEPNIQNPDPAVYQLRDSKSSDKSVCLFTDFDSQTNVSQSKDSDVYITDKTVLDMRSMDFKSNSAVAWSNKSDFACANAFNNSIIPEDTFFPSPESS
T6 sequence (Q07011 24-255 limits assumed): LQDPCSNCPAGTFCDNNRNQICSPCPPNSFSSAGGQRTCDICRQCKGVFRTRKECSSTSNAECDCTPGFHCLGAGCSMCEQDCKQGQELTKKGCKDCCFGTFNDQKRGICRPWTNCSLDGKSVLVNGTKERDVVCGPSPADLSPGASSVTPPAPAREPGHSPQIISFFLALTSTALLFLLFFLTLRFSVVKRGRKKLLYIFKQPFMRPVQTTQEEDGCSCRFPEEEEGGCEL
T5 sequence (Q13421 other isoform, or with tags, fused parts or gaps limits assumed): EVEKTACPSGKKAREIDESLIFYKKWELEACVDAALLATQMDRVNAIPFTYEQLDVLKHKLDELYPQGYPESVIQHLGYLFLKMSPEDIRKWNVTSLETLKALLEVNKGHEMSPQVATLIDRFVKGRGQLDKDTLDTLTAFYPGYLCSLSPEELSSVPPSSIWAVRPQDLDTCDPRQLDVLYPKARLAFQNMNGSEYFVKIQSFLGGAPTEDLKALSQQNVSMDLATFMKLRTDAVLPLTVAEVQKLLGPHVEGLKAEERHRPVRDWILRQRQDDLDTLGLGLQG
T3 sequence (Q15116 25-167 limits assumed): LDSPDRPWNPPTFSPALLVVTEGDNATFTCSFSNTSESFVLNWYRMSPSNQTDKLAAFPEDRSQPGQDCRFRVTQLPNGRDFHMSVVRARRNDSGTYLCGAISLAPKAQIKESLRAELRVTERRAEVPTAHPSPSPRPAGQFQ
T7 sequence (delta, as listed by the source limits assumed): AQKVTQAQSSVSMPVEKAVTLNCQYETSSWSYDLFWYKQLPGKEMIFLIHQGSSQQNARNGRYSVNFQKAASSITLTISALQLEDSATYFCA
Recombinant human FAPα, sequence (Q12884 26-760 limits assumed): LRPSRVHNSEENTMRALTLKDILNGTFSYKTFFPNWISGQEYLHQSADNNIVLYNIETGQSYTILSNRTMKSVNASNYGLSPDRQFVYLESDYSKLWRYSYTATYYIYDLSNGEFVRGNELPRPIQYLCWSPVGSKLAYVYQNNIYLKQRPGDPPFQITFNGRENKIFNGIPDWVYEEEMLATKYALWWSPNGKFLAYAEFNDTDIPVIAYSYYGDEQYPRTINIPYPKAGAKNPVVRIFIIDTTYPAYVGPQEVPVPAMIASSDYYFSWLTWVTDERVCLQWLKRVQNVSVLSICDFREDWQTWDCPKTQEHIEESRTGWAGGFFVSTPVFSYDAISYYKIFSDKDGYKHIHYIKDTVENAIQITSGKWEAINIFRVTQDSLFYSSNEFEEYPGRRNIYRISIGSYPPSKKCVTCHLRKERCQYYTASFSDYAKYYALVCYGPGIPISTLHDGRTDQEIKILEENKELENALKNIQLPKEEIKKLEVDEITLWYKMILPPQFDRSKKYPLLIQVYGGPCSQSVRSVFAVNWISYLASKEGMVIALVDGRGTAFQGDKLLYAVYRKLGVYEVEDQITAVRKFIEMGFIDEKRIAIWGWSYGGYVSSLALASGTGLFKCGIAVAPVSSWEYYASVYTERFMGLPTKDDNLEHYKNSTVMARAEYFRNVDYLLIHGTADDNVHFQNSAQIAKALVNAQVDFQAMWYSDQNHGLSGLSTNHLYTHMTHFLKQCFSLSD

B1: ADT1-4-2 (antibody, IgG1, V domains shown)
VH: EVQLQQSGPGLVKPSQTLSLTCAISGDSVSSKSAAWNWIRQSPSRGLEWLGRTYYRSKWSTDYAASVKSRITINPDTSKNQLSLQLNSVTPEDTAVYYCARTWVGYVDRWGQGTLVTVSS
VL: DIQMTQSPPALSASVGDRVTITCRASQDINDWLAWYQHKPGKAPKLLIYDASSLESGVPLRFSGSGSGTEFTLTISSLQPDDFATYYCQQKYSAPQVTFGQGTRLEIK
notes: IgG1
Kd [1]: 1.25 nM | EC50 (read off the curve) [2]: ~0.2 nM | IC50 (read off the curve), Vδ1 TCR downregulation, γδ T-cells alone [3]: ~0.1 nM | binding result (Recombinant human PD-1): no binding | EC50 (read off the curve) [4]: ~0.2 nM | binding result [5]: no binding (tested: 200 nM) | Kd [6]: 0.29 nM | binding result (Recombinant human FAPα): no binding | binding result (Recombinant human MSLN): no binding | binding result [7]: no binding (tested: 200 nM) | Kd [8]: 0.34 nM | Kd [9]: 2.6 nM | EC50 (read off the curve) [10]: ~0.2 nM
